Literature values as cited in patent US20260159592A1, “COMPOSITIONS AND METHODS FOR TARGETING AND KILLING ALPHA-V BETA-3 -POSITIVE CANCER STEM CELLS (CSCS) AND TREATING DRUG RESISTANT AND METASTATIC CANCERS” (The Regents of the University of California, priority 2019, published 2026).

Assays:
M21 cells = settings: ligands such as vitronectin, fibrinogen and von Willebrand factor; Cheresh and Spiro
αvβ3 [1] = target: T1, αvβ3 (Homo sapiens, UniProt P05106+P06756); settings: Choi et al. (1994); Jones et al. (1996)
αvβ3 [2] = target: T1, αvβ3; settings: Clark et al., Am. J. Pathology 148:1407-1421 (1996)
αvβ3 [3] = target: T1, αvβ3; settings: Brooks et al. Cell 79:1157-1164 (1994)

T1 sequence (P06756 31-889 limits assumed): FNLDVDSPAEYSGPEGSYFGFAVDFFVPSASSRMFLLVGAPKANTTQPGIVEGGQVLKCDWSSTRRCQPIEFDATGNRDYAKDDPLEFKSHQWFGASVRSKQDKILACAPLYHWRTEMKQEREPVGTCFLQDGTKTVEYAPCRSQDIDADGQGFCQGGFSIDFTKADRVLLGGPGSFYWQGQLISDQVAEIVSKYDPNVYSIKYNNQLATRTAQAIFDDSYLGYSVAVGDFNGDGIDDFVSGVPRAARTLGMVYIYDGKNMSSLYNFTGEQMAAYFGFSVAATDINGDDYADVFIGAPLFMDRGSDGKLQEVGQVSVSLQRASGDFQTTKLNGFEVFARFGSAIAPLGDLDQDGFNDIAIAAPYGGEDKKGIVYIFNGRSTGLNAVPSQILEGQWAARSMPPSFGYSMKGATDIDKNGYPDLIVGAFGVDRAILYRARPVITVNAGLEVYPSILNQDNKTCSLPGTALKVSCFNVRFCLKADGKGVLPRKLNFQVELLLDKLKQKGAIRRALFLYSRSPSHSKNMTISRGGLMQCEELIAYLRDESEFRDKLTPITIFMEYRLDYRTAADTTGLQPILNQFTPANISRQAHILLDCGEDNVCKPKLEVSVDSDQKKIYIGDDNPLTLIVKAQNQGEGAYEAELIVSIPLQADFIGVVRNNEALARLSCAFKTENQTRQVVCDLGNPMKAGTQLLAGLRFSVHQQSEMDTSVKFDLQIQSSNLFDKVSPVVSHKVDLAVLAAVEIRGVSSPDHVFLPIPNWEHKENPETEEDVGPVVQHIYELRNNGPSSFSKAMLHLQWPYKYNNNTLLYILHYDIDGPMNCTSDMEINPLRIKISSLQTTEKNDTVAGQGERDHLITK
T1 sequence (P06756 891-1048 limits assumed): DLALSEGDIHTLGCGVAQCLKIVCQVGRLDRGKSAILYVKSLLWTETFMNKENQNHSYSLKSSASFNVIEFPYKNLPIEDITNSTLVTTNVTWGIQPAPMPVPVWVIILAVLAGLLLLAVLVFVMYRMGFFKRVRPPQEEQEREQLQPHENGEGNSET
T1 sequence (P05106 27-788): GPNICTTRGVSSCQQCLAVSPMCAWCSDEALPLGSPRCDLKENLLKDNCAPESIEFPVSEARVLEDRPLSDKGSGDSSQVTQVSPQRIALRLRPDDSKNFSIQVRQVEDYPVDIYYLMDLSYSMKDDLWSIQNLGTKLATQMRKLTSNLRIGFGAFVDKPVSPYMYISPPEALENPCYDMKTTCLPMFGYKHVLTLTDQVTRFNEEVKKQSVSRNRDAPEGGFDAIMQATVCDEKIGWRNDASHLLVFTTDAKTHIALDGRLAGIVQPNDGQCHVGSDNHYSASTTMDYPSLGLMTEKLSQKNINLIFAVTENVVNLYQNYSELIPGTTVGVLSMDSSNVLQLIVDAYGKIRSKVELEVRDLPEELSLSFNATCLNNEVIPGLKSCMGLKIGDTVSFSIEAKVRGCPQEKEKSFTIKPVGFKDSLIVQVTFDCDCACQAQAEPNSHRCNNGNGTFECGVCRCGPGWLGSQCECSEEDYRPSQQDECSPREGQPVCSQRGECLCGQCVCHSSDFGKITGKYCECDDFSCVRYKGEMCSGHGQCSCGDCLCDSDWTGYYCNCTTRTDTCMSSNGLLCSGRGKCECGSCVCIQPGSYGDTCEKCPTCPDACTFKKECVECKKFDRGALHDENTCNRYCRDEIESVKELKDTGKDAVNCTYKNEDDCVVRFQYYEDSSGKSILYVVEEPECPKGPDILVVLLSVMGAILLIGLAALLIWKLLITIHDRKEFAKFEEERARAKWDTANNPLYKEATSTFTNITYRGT

smooth muscle cell migration such as that occurring during restenosis (αvβ3 [1]): inhibitor | granulation tissue development in cutaneous wound (αvβ3 [2]): inhibitor | tumor induced angiogenesis (αvβ3 [3]): inhibitor
B1: LM609: murine monoclonal antibody specific for the integrin αvβ3 (antibody, V domains shown)
VH: EVQLVESGGGLVKPGRSLRLSCAASGFAFSSYDMSWVRQIPEKRLEWVAKVSSGGGSTYYLDTVQGRFTISRDNAKNTLYLQMSSLNSEDTAMYYCARHNYGSFAYWGQGTLVTVSA
VL: DIVLTQSPATLSVTPGDSVSLSCQASQSISNHLHWYQQKSHESPRLLIKYRSQSISGIPSRFSGSGSGTDFALSINSVETEDFGMYFCQQSGSWPHTFGGGTKLEIK
attachment of M21 cells to αvβ ligands (M21 cells): inhibits
